Laboratory results: patent US11028174 (LEPU BIOPHARMA, dated 2021)

How the values were obtained:
[1] = target: recombinant human TGF-β (human) (UniProt P01137); assay: cell-based or functional assay
[2] = target: PD-L1 on PD-L1 target cells (Homo sapiens (Human)) (UniProt Q9NZQ7); assay: cell-based or functional assay
mouse PD-L1 protein = mouse PD-L1 protein (mouse, UniProt Q9EP73 19-239, limits assumed); assay: ELISA, coated mouse PD-L1
Protocol: (§1) ELISA testing was carried out to evaluate the binding of chimeric antibodies to human PD-L1, mouse PD-L1, rat PD-L1, and cynomolgus PD-L1, respectively.
(§2) Briefly, microtiter plates were coated with human, mouse, rat and cynomolgus PD-L1 proteins at 0.5 µg/ml in PBS, 100 µl/well at 4° C. overnight, then blocked with 150 µl/well of 1% BSA. Three-fold dilutions of chimeric antibodies starting from 10 µg/ml were added to each well and incubated for 1 hour at 37° C. The plates were washed with PBS/Tween and then incubate with mouse-anti-human IgG Fab antibody conjugated with Horse Radish Peroxidase (HRP) for 30 mins at 37° C. After washing, the plates were developed with TMB substrate and analyzed by spectrophotometer at OD 450 nm.

rat PD-L1 protein = rat PD-L1 protein (rat, UniProt D4AE25 19-239); assay: ELISA, coated rat PD-L1
Sequence of rat PD-L1 protein (D4AE25 entry or part of it limits assumed): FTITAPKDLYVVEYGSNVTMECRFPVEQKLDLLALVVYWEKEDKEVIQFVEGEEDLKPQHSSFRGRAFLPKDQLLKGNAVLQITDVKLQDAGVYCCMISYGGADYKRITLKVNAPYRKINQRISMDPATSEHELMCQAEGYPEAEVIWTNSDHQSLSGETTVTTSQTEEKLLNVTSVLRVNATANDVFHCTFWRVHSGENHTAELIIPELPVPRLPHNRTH
Protocol: as §1, §2

Sequence of mouse PD-L1 protein (Q9EP73 19-239 limits assumed): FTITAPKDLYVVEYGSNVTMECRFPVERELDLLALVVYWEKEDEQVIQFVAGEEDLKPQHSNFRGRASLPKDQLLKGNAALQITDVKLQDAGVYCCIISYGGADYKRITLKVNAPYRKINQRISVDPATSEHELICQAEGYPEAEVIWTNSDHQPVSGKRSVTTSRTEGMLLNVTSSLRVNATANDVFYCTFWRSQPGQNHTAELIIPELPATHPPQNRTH
Sequence of PD-L1 on PD-L1 target cells (Homo sapiens (Human)) (Q9NZQ7 19-290 limits assumed): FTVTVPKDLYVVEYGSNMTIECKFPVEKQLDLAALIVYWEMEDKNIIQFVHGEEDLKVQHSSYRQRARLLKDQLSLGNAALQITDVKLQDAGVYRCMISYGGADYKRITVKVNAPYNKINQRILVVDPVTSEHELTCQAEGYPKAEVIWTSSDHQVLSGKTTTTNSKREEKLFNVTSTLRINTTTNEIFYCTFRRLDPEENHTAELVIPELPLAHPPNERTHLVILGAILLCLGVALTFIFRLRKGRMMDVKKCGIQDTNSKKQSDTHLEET
Sequence of recombinant human TGF-β (human) (P01137 279-390 limits assumed): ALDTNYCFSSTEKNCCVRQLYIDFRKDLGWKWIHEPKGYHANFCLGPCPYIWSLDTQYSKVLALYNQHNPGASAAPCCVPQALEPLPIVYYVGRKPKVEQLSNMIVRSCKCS

Molecule	TGF-β SMAD luciferase reporter assay in transfected 293 cells [1] [nM]	NFAT-RE-mediated luminescence, PD1 effector cells co-cultured with PD-L1 target cells [2] [nM]	binding result (mouse PD-L1 protein)	binding result (rat PD-L1 protein)
M7824 (bintrafusp alfa)	0.0669	0.85		
67F3G7 chimeric mAb (antibody, V domains shown, also called 67F3G7-chimera) VH: QVKLLQSGAALVKPGASVKMSCKASGYIFTDFWVSWVKQSHEKSLEWIGEIYPNSGVSRYNEKFKGRATMTVDKSTSTAYLELSRLTSEDSAIYYCTKYFGYTYWFGYWGQGTLVTVSS VL: DTVLTQSPALAVSLGQRITISCRASKSVSTYMHWYQQRSGLQPKLLIYSASHLESGVPSRFSGSGSGTDFTLTIDPVEADDIANYYCQQSNELPVTFGSGTKLEIK			no binding (tested: starting from 10 µg/ml)	no binding (tested: starting from 10 µg/ml)
47C6A3 chimeric mAb (antibody, V domains shown, also called 47C6A3-chimera) VH: DVQLQESGPGLVKPSQSLSLTCTVTGYSITSDYAWNWIRQFPGNKLEWMGYIIYSGSTSYNPSLKSRISITRDTSKNQFFLQLNSVTTEDTATYYCARSTMIATNWFAYWGQGTLVTVSA VL: DIVMTQSHKFMSTSVVDRVSITCKASQDVSLAVAWYQQKPGQSPKLLIYWASTRHTGVPDRFTGSGSGTDFALTISSVQAEDLALYYCQQHYITPWTFGGGTKLEIK			no binding (tested: starting from 10 µg/ml)	no binding (tested: starting from 10 µg/ml)
89C10H8 chimeric mAb (antibody, V domains shown, also called 89C10H8-chimera) VH: EVQLVESGGGLVQPGRSLTLSCVASGFTFSNYWMTWIRQAPGKGLEWVASITNTGSSTFYPDSVKGRFTISRDNTRSTLFLQINSLRSEDTATYYCTRDTTIAPFDYWGQGVMVTVSS VL: DIQMTQSPSFLSASVGDRVTITCKASQNLNEYLNWYQQKLGEAPKRLIYKTNTLQAGIPSRFSGSGSGIDYTLTISSLQPEDVATYFCSQYNSGNTFGAGTKLELK			no binding (tested: starting from 10 µg/ml)	no binding (tested: starting from 10 µg/ml)
